Test results reported in patent US6613536B1, “Synthetic peptides and pharmaceutical compositions comprising them for the treatment of systemic lupus erythematosus” (Yeda Research and Development Co. Ltd., priority 1995, dated 2003).

What was measured:
[1] = molecular target: MHC class II products (H-2s) on splenic antigen-presenting cells of SJL mice (mouse); assay: flow cytometry, inhibition of binding of biotinylated peptide Ia (competitor) to SJL APC
[2] = molecular target: MHC class II products (H-2s) on splenic antigen-presenting cells of SJL mice (mouse); assay: flow cytometry, inhibition of binding of biotinylated peptide IIIa (competitor) to SJL APC
[3] = molecular target: MHC class II products (H-2b) on splenic antigen-presenting cells of C3H.SW mice (mouse) (UniProt P14434); assay: flow cytometry, inhibition of binding of biotinylated peptide Ia (competitor) to C3H.SW APC
[4] = molecular target: MHC class II products (H-2b) on splenic antigen-presenting cells of C3H.SW mice (mouse) (UniProt P14434); assay: flow cytometry, inhibition of binding of biotinylated peptide IIIa (competitor) to C3H.SW APC
[5] = molecular target: MHC class II products (H-2d) on splenic antigen-presenting cells of BALB/c mice (mouse) (UniProt P04228); assay: flow cytometry, inhibition of binding of biotinylated peptide Ia (competitor) to BALB/c APC
[6] = molecular target: MHC class II products (H-2b) on splenic antigen-presenting cells of C57BL/6 mice (mouse) (UniProt P14434); assay: flow cytometry, inhibition of binding of biotinylated peptide Ia (competitor) to C57BL/6 APC
[7] = molecular target: MHC class II products (H-2b) on splenic antigen-presenting cells of C57BL/6 mice (mouse) (UniProt P14434); assay: flow cytometry, inhibition of binding of biotinylated peptide IIIa (competitor) to C57BL/6 APC
[8] = molecular target: MHC class II products (H-2d) on splenic antigen-presenting cells of BALB/c mice (mouse) (UniProt P04228); assay: flow cytometry, inhibition of binding of biotinylated peptide IIIa (competitor) to BALB/c APC
[9] = test system: peripheral blood lymphocytes (PBL); assay: IL-2 production by PBL of SLE patients and healthy controls; format: cell-based, human; details: sample at 24 hr
Procedure: (§1) PBL from human SLE patients and of the appropriate control donors (2×10^5/well) were cultured in microtiter plates in enriched medium containing 10% pooled AB sera in the presence of the human or mouse monoclonal 16/6 Id antibody, in the presence of peptides of the invention or in the presence of phytohemagglutinin (PHA). The rate of proliferation was evaluated by the incorporation of ^3[H]-thymidine in the cell culture. Non-relevant peptides were used as specificity controls. Antigen and mitogen-stimulated cytokine production was quantitated in the supernatants of the above cultures using either the cytokine-dependent lines or the appropriate pairs of antibodies in ELISA assays. Inhibition of the proliferative responses was performed in vitro by adding increasing doses of the tested peptide analogs into the proliferative culture mixtures.
PBL were isolated from blood of SLE patients or healthy controls using ficol gradient, and were incubated as in Example 13. A sample of 50 μl was removed 24 hr after the assay was started, and incubated in the presence of IL-2 sensitive cells (CTLD) for 24 hr, after which ^3H-thymidine was added for 16 hr, and the plates were harvested and counted on a beta counter.

BALB/c and SJL mice = assay: Clinical manifestations of SLE in immunized mice (WBC, proteinuria, kidney analysis); format: in vivo, mouse
Procedure: The erythrocyte sedimentation rate was determined by diluting the heparinized blood in PBS at a ratio of 1:1. The diluted blood was then passed to a microsampling pipette and the sedimentation was measured 6 hours later. White blood cell counts were determined after the hemolysis of heparinized blood. Proteinuria was measured in a semi-quantitative manner, using a Combistix kit (Ames, Stoke Poges, Slough, U.K.). Immunohistology was performed by incubation of fixed frozen cryostat sections with FITC-labeled antibodies to mouse Ig. Staining was visualized via use of a fluorescent microscope.
BALBtc and SJL mice were immunized with mAb 5G12 or with peptides Ia and IIIa, and five months later were checked by two criteria for manifestation of SLE: white blood cell count (WBC) and proteinuria.
(i) White blood cell count (WBC): The mice were bled, their blood was diluted 1:10 with 1% (vol/vol) acetic acid in order to eliminate the red blood cells, and white blood cells were counted under a normal light microscope.
Proteinuria: The urine of the mice was tested using combisticks (Combistix Kit, Ames) for the presence of protein.

[10] = test system: peripheral blood lymphocytes (PBL); assay: Proliferation of PBL from SLE patients and healthy controls; format: cell-based, human
Procedure: as §1
Peripheral blood lymphocytes (PBL) were isolated from the blood of SLE patients or healthy controls using ficol gradient. Thereafter, the PBL were incubated in the presence of different concentrations of the peptides Ia, IIa or IIIa, or the human 16/6 Id mAb for 24 hr, when a sample was taken for IL-2 measurement. The assay was continued for a total of 7 days, and ^3H-thymidine was added for the last 16 hr. Proliferation was detected by reading the amount of radioactivity incorporated into the DNA of the cells.

[11] = test system: antibodies in sera of SLE patients and healthy controls; assay: Antibodies in human sera binding coated peptides or mAb 5G12 (ELISA); details: 32 SLE patients in comparison to healthy controls; plates coated 10 μg/ml
Procedure: Human SLE patients (32 patients) were bled and their sera were tested by ELISA for their ability to bind the peptides Ia, IIa and IIIa, a control peptide p195-212 (a myasthogenic peptide described in PCT publication No. WO 94/00148) or mAb 5G12.
Detection of the antibodies was conducted on plates that were coated with 10 μg/ml of peptides Ia, IIa, IIIa or p195-212 or mAb 5G12, in PBS for 2 hr, washed and blocked with 1% ovalbumin in PBS for an additional 2 hr. ELISA was continued as described after blockage in Example 2 above, using goat anti-human IgG polyclonal antibody conjugated to peroxidase.

% inhibition [1] [%]	% inhibition [2] [%]	% inhibition [3] [%]	% inhibition [4] [%]	% inhibition [5] [%]	% inhibition [6] [%]	% inhibition [7] [%]	% inhibition [8] [%]	Substance	IL-2 production by PBL, actual number of responders ([9]; SLE patients)	IL-2 production by PBL, percentage of responders ([9]; SLE patients) [%]	IL-2 production by PBL, actual number of responders ([9]; healthy controls)	IL-2 production by PBL, percentage of responders ([9]; healthy controls) [%]	protein level in urine (in words) (BALB/c and SJL mice; BALB/c mice)	protein level in urine (in words) (BALB/c and SJL mice; SJL mice)	proliferation of PBL, actual number of responders ([10]; SLE patients)	proliferation of PBL, percentage of responders ([10]; SLE patients) [%]	proliferation of PBL, actual number of responders ([10]; healthy controls)	proliferation of PBL, percentage of responders ([10]; healthy controls) [%]	levels of serum antibodies that bind the coated peptide or mAb [11]
100	92.8							10.3.6.2 (anti-I-A^s (Zamvil et al., 1988)) (antibody)											
		60	84.4	0	82	59.3	0	34-5-3 (anti-I-A^b, Pharmingen) (antibody)											
								EINPSTGGTTYNQKFKAKAT (EINPSTGGTTYNQKFKAKAT) [peptide IIa, based on the CDR2 region of the VH chain of mAb 5G12]	3/32	9	8/25	32	smaller increase in protein level	High levels of protein	3/32	9	7/25	28	significantly higher levels of antibodies
0	0	0	25	76.7	0	0	100	MKD6 (anti-I-A^d, Beckton-Dickinson) (antibody)											
